Experimental data: paper PMC2877039 (Developmental cell, 2010)

T1: His6-tagged full-length Sec15 protein (yeast, UniProt P22224 1-910)
T1 sequence (looked up): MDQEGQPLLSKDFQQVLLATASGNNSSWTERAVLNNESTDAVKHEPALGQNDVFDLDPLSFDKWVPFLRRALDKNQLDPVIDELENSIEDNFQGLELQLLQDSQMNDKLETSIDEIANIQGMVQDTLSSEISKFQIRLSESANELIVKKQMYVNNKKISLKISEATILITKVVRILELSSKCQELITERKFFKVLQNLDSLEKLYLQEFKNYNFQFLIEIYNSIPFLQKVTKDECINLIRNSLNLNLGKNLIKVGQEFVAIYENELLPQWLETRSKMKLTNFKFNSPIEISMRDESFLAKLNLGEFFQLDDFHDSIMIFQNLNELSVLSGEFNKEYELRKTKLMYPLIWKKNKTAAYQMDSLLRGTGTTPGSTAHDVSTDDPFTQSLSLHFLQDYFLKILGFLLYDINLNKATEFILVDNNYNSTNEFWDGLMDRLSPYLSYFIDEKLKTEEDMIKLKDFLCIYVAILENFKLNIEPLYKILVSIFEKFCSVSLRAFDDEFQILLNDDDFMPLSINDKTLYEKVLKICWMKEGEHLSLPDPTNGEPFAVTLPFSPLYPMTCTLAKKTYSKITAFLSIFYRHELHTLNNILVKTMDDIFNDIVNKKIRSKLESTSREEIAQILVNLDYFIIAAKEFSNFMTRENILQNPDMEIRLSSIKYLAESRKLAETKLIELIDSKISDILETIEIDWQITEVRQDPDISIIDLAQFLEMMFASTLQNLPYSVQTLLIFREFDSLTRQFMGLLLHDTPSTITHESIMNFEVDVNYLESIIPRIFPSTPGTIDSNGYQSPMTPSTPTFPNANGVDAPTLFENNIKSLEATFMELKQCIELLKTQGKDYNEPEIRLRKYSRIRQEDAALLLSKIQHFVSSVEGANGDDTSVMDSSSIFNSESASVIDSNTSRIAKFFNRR

B1: Sec15p C-terminal fragment (a.a. 559–910) (domain or fragment, yeast, UniProt P22224 559-910, looked up)
chain: MTCTLAKKTYSKITAFLSIFYRHELHTLNNILVKTMDDIFNDIVNKKIRSKLESTSREEIAQILVNLDYFIIAAKEFSNFMTRENILQNPDMEIRLSSIKYLAESRKLAETKLIELIDSKISDILETIEIDWQITEVRQDPDISIIDLAQFLEMMFASTLQNLPYSVQTLLIFREFDSLTRQFMGLLLHDTPSTITHESIMNFEVDVNYLESIIPRIFPSTPGTIDSNGYQSPMTPSTPTFPNANGVDAPTLFENNIKSLEATFMELKQCIELLKTQGKDYNEPEIRLRKYSRIRQEDAALLLSKIQHFVSSVEGANGDDTSVMDSSSIFNSESASVIDSNTSRIAKFFNRR
B2: GST-Sec2p (wild type) (natural protein, yeast, UniProt P17065 1-759, looked up)
chain: MDASEEAKRVSIQVTSLSTQLIESVDKQSHLEEQLNKSLKTIASQKAAIENYNQLKEDYNTLKRELSDRDDEVKRLREDIAKENELRTKAEEEADKLNKEVEDLTASLFDEANNMVADARKEKYAIEILNKRLTEQLREKDTLLDTLTLQLKNLKKVMHSLDNESTVTNNSNRYSTILSDSATSSSTSLNKVPTSYSLASQDIYSGIVYSPSISSIRYDISLYNEFLKFVAALPRCENIKATSTESKLIRRLVNDEIQPILKIDNASGIGWLVKKTLLSLIIDGLVVVEPLSGVNATYQIGYNSSSPAKQATSNMPKMFKFPLDSPPVAVHAACSFCGESRDDIIEHARMYILKTLHKTDDGKEQVTNTYPLCHWCLLKLRQTCEIFAFLRSLKVGAWHLEKLTTQNITKEDLEKFSEVTKHTKRDGRVSSQDKKTKRLSFMAGLGINSSTKNKPKMEIFSSETNAKPGQPTTNIQRAWLQLCKLRCILHWTHIGIWAVDDSISSKIGPLVEDDSDEDQNDAISVRLQDKALWKQDAKRPFSSSSAEESQKSDAFDFESGDMENEITGESSSDESSSDGSSTDNSTADSSSEDESSLADSTTSSADSSSPESIDNGEGDDTVTKDDKSSIKSANNNEENSDCGDKKGRSIIKKKAPQRKIQKKKLLQDLDDLEEQFREESAIDQTEFENAESNVKQNISSKRASSGDENSKKDNNEKTLKTNLTIGDKTQEQIGENSPSSGLHASSSNDDNFDDAQEQQ

Columns and labels:
GST-Sec2p (wild type) = target: B2; assay: pull-down
[1] = target: T1, His6-tagged full-length Sec15 protein; assay: pull-down

binding result (GST-Sec2p (wild type)) | binding result [1] | Binder
binds | – | B1
– | binds | B2
